From PMC6858569

Molecular target: mouse TRPV3 with the single residue substitution Y564A (mouse)
Experiment: cryo-EM structure

- stoichiometry N: 4
Substance: mouse TRPV3 with the single residue substitution Y564A (natural protein)
